This note sets out measurements from patent US8119589B2, “Modulation of CD4+ T cell responses by a tick saliva protein, Salp15 and polypeptides derived therefrom” (University of North Carolina at Charlotte, priority 2004, dated 2012).

Assay [1] concerns the target T1, sCD4 D1-D4 (Homo sapiens, UniProt P01730).
T1 construct: a sCD4 preparation that contains all four extracellular domains (D1-D4)
Put plainly: Microtiter binding assay with immobilized sCD4 D1-D4. To be noted: Salp15 0.4 μM; similar kinetics to D1-D2. How it is done: (§1) Purified sCD4 was coated overnight at 4° C. at the indicated concentrations in 0.1M sodium carbonate buffer (pH 9.5) in 96 well plates. Equimolar amounts of lysozyme were used as a non-specific control. The wells were washed, blocked with 10% FCS/PBS for 1 hr at R.T., and incubated with Salp15 (0.4 μM) for 2 hr at 37° C. Salp15 binding was detected by incubation with horseradish peroxidase (HRP)-conjugated anti-His antibody for 1 hr followed by microwell peroxidase substrate (KPL). The reaction was stopped by adding TMB stop solution (KPL). Chemically synthesized overlapping peptides of Salp15 were purchased from GenScript Corporation (Piscataway, N.J., U.S.A). To study the binding of Salp15 and peptides to sCD4, Salp15 (5 μg) and different peptides (0.5 μg) were coated. The wells were washed and blocked prior to incubation with sCD4-HRP (Research Diagnostics Inc., Flanders, N.J., U.S.A.). For competition assays, indicated concentrations of Salp15 or P11 were added to sCD4-HRP and incubated with plate bound P11 (0.1 μg). To estimate the effect of dithiothreitol (DTT) treatment of Salp15 on binding to sCD4, 0.5 μM Salp15 was treated with 10 mM DTT overnight and immobilized onto microtiter plate followed by blocking and incubation with sCD4-HRP.

For the next assay, the target named is T2, sCD4 (Homo sapiens, UniProt P01730).
T2 construct: the extracellular four domains of CD4 (sCD4); purchased Research Diagnostics Inc., Flanders, N.J., U.S.A
Put plainly: Competition for sCD4-HRP binding to plate-bound P11. The protocol:
as §1

The test system of assay [2] is CD4+ T cells. Briefly: INFγ-mediated STAT1 phosphorylation in CD4+ T cells. The class given is cell-based, mouse. To be noted: 20 ng/mL INFγ; Salp15 50 μg/mL. How it is done: For tyrosine phosphorylation western analysis, cells were lysed in 60 mM Tris (pH 7.4) containing 150 mM NaCl, 5 mM EDTA, 1 mM EGTA, 1 mM β-glycerol phosphate, 2.5 mM sodium pyrophosphate, 25 mM NaF, 2 mM sodium orthovanadate, 1% Triton-X 100, 0.25% sodium deoxycholate, 1 mM PMSF and protease inhibitors for 15 min on ice, sonicated 4×5 sec and incubated at 37° C. for 10 min. The lysate was cleared by centrifugation and boiled in SDS-sample buffer. The samples were subjected to SDS-PAGE, transferred to a nitrocellulose membrane and immunoblotted with anti-pTyr, anti-pPLCγ1 and anti-Vav1, anti-pSrc family (Tyr^416) to measure p-Lck^394 (Alonso et al., 2004), anti-Lck, anti-pZap70 (Tyr^319), anti-Zap70, p44/42 and p44/42 (phopho-Tyr^204/Thr^202). Vav1 was immunoprecipitated using anti-Vav1 and protein A-agarose beads overnight, subjected to SDS-PAGE followed by immunoblotting with anti-pTyr or anti-Vav1. To examine the effect of Salp15 on T cell stimulation with INFγ, CD4^+ T cells were preincubated with Salp15 at 50 μg/mL followed by activation with 20 ng/mL of mouse recombinant INFγ (R & D Systems, Minneapolis, Minn., U.S.A.) for 30 min at 37° C. The cells were lysed as above and subjected to SDS-PAGE and immunoblotting with anti-pSTAT1 and anti-STAT1.

The test system of assay [3] is CD4+ T cells. Briefly: Salp15488 binding on cell surface by confocal microscopy. On the set-up: species or system mouse. How it is done:
(§2) For colocalization experiments, Jurkat and CD4^+ T cells were cytospun as described herein. HeLa and HeLa-CD4 cells were grown on chamber slides. The cells were fixed and stained with anti-CD4 and Salp15 as follows. Purified Salp15 was labeled using Alexa-488 with the Protein Labeling Kit (Molecular Probes) according to the manufacturer's instructions. Fixed cells were blocked with 5% normal serum and anti-CD16/CD32 (1:100) in PBS, incubated with 1 μg of monoclonal biotinylated anti-CD4 (L3T4) (BD Biosciences Pharmingen) followed by streptavidin594 staining. The cells were then stained with 20 μg/mL of Salp15488. For competition assays, cells were first blocked with 5% normal serum, incubated with either polyclonal anti-CD4 antibody, MT310, OKT4, normal rabbit IgG, Salp15 (0.5 mg/mL) or lysozyme (0.5 mg/mL) followed by staining with Salp15488. All samples were mounted in a GVA Mount (Zymed, San Francisco, Calif., U.S.A.) and visualized with an Olympus Confocal microscope equipped with Fluoview 3.0 software.

The target of another assay is T3, CD4 on HeLa-CD4 cells (Homo sapiens, UniProt P01730).
T3 construct: host or cells: HeLa
Put plainly: Competition of Salp15488 binding to HeLa-CD4 cells. The conditions noted are these: Salp15 or lysozyme 0.5 mg/mL. How it is done:
as §2

The target in assay [4] is T1, sCD4 D1-D4. Briefly: Analytical gel filtration and native gel electrophoresis of Salp15-sCD4. The class given is binding. To be noted: native PAGE and Western blot. How it is done:
Purified sCD4 (D1-D4, 10 μg) and Salp15 (20 μg) were eluted through two SUPERDEX-200™ HR 10/30 gel filtration columns (Amersham Pharmacia Biotech, Piscataway, N.J., U.S.A.) connected in tandem using PBS as equilibration and elution buffer at a flow rate of 0.3 mL/min using an FPLC system (Amersham Pharmacia Biotech) equipped with a liquid chromatography controller LCC-501 Plus and regulated using FPLC director V1.10. To get the elution profile of the Salp15-CD4 complex, Salp15 was incubated with sCD4 before passing it through the gel filtration column. Blue dextran was used to estimate the void volume of the columns, while BSA, ovalbumin and lysozyme were used as molecular weight standards with elution volumes of 14.78 mL, 26.45 mL, 28.45 mL and 39.28 mL, respectively.
Purified sCD4 (D1-D4, 10 μg), Salp15 (10 μg) and sCD4 (10 μg)+Salp15 (10 μg) were diluted into 50% glycerol, 40 mM HEPES (pH 6.5) and 50 mM imidazole (pH 6.5). The native gel [5% Acrylamide:Bis (29:1), 40 mM HEPES (pH 6.5), 50 mM imidazole (pH 6.5) and 10% glycerol] electrophoresis was performed using a 40 mM HEPES (pH 6.5) running buffer and 50 mM imidazole (pH 6.5) at 8 mAmps for 1.5 hours at 4° C. The gel was stained with coomassie blue or transferred to IMMOBILON P® (Millipore) blotting paper for immunoblotting with anti-Poly His-HRP and anti-CD4.

The test system of a further assay is CD8+ cells. Briefly: Salp15488 binding on cell surface by confocal microscopy. On the set-up: species or system mouse.

Consider “Salp15: secreted salivary protein from Ixodes scapularis, SEQ ID NO: 2; recombinant His-tagged, produced in Drosophila S2 cells”, for which the “Binding to sCD4 D1-D4” value with sCD4 D1-D4 [1] is “saturable binding”. Also, in the assay with sCD4, the “Competition of P11 binding to sCD4 by increasing concentrations of Salp15” value was “could also be competed”. Further, the “INFγ-mediated phosphorylation of STAT1” value in the assay with CD4+ T cells [2] is listed as “unaffected”. For the same substance, the “Binding to CD4+ T cells” value in the assay with CD4+ T cells [3] is “bind specifically”. For the same substance, the “Competition of Salp15488 binding to HeLa-CD4 cells by preincubation” value in the assay with CD4 on HeLa-CD4 cells is “competed”. The “Migration with sCD4 (D1-D4) in native gel” value with sCD4 D1-D4 [4] was “co-migrated”. The “Staining of CD8+ cells” value with CD8+ cells was “no staining”.
